Test results reported in article PMC10698284, “SLC3A2 N-glycosylation and Golgi remodeling regulate SLC7A amino acid exchangers and stress mitigation” (The Journal of Biological Chemistry, 2023).

T1: FLAG-SLC3A2 N381D (human, UniProt P08195-1 66-630, N381D, N-glycosylated; N-glycosylation site N381 deleted)
T1 construct: SLC3A2 (4F2hc, CD98), human, cDNA encoding amino acids 66 to 630 of isoform P08195-1, with N381D; also called N381D site variant; source: HeLa Flp-In T-REx SLC3A2 KO cells, dox-induced from the Flp-In site; in lysate (AP-MS) or on the cell surface, then lysed (Gal3 co-IP); not shown: FLAG, N-terminal, kept
T1 sequence (looked up): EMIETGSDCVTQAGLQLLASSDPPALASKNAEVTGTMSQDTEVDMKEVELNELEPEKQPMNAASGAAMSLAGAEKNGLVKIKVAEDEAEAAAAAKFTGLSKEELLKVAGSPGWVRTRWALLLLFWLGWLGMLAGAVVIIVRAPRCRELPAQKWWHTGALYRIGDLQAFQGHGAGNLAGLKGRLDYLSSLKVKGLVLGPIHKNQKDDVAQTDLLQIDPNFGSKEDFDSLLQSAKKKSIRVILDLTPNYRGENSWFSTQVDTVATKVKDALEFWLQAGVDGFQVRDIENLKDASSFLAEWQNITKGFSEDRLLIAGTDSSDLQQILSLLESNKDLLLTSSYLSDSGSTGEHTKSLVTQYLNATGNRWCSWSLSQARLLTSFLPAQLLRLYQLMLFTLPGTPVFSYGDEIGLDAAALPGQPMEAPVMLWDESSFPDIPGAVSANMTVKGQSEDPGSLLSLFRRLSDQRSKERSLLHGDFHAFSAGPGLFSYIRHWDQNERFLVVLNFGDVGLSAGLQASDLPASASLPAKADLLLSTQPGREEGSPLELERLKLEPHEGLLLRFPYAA

T2: FLAG-SLC3A2 N365D (human, UniProt P08195-1 66-630, N365D, N-glycosylated; N-glycosylation site N365 deleted)
T2 construct: SLC3A2 (4F2hc, CD98), human, cDNA encoding amino acids 66 to 630 of isoform P08195-1, with N365D; also called N365D site variant; source: HeLa Flp-In T-REx SLC3A2 KO cells, dox-induced from the Flp-In site; in lysate (AP-MS) or on the cell surface, then lysed (Gal3 co-IP); not shown: FLAG, N-terminal, kept
T2 sequence (looked up): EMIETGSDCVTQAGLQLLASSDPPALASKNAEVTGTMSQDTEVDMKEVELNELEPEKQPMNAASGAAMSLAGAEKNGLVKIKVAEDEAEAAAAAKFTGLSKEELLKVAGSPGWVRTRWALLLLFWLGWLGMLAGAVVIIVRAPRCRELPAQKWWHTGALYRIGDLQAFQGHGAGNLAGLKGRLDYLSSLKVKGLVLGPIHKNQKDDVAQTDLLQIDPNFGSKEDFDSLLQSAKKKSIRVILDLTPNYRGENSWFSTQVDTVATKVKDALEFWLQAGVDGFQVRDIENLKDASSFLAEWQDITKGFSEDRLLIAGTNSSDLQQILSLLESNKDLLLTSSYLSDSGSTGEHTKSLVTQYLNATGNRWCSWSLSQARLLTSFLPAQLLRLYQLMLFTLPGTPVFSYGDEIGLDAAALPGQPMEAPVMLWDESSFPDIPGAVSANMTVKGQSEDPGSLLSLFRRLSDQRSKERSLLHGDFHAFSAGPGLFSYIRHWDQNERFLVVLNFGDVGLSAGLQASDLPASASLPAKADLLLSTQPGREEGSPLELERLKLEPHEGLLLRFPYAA


Legend:
FLAG-SLC3A2 N381D = target: T1, FLAG-SLC3A2 N381D; test: affinity purification with mass spectrometry; anti-FLAG M2 agarose, 4 h at 4 °C, 1 mg lysate (0.5% NP40, 50 mM HEPES pH 8.0, 100 mM KCl, 1 mM EDTA, 10% glycerol) of HeLa Flp-In T-REx SLC3A2 KO cells with dox-induced FLAG-SLC3A2 WTseq or site variants; on-bead trypsin digest, DDA and SWATH; control: dox-treated SLC3A2 KO cells; in some samples 10 μM fluvastatin or 250 ng/ml swainsonine for the final 24 h; conditions: partners not purified
FLAG-SLC3A2 N365D = target: T2, FLAG-SLC3A2 N365D; test: as above; conditions: partners not purified

SLC7A5, sequence (Q01650 whole entry): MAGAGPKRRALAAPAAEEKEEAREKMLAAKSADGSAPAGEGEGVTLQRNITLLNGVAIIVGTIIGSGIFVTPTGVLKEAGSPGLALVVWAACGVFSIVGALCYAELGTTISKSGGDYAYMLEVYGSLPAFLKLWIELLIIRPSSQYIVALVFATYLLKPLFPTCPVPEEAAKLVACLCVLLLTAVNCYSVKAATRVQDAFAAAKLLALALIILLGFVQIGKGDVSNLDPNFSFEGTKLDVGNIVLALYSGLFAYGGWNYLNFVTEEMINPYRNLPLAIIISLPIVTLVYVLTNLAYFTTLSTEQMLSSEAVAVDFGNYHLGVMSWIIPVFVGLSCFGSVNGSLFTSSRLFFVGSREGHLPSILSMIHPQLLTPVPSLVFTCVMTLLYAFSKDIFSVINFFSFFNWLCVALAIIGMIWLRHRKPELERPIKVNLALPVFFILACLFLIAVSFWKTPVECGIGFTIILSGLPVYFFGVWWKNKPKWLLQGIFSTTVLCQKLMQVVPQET

| percent decrease of the interaction against WTseq (FLAG-SLC3A2 N381D) [%] | percent decrease of the interaction against WTseq (FLAG-SLC3A2 N365D) [%] | Binder |
| --- | --- | --- |
| 67 ± 15 | 67 ± 15 | SLC7A11 (natural protein, human (endogenous in HeLa), UniProt Q9UPY5 1-501, looked up, SLC7A11, human, endogenous in HeLa cells, found by its tryptic peptides; Forms a disulfide-linked heterodimer with SLC3A2; source: endogenous, HeLa lysate) MVRKPVVSTISKGGYLQGNVNGRLPSLGNKEPPGQEKVQLKRKVTLLRGVSIIIGTIIGAGIFISPKGVLQNTGSVGMSLTIWTVCGVLSLFGALSYAELGTTIKKSGGHYTYILEVFGPLPAFVRVWVELLIIRPAATAVISLAFGRYILEPFFIQCEIPELAIKLITAVGITVVMVLNSMSVSWSARIQIFLTFCKLTAILIIIVPGVMQLIKGQTQNFKDAFSGRDSSITRLPLAFYYGMYAYAGWFYLNFVTEEVENPEKTIPLAICISMAIVTIGYVLTNVAYFTTINAEELLLSNAVAVTFSERLLGNFSLAVPIFVALSCFGSMNGGVFAVSRLFYVASREGHLPEILSMIHVRKHTPLPAVIVLHPLTMIMLFSGDLDSLLNFLSFARWLFIGLAVAGLIYLRYKCPDMHRPFKVPLFIPALFSFTCLFMVALSLYSDPFSTGIGFVITLTGVPAYYLFIIWDKKPRWFRIMSEKITRTLQIILEVVPEEDKL |
| 44 ± 14 | 44 ± 14 | SLC7A5 (natural protein, SLC7A5, human, endogenous in HeLa cells, found by its tryptic peptides; Forms a disulfide-linked heterodimer with SLC3A2; also called SLC7A5 exchanger; source: endogenous, HeLa lysate) not shown |
